PMC8167055

Legend:
[1] = target: LC3B fused with mCherry (microtubule-associated protein light chain 3) (human) (UniProt Q9GZQ8); test: ELISA; plate coated with 5 μg/ml mCherry-LC3B in PBS, blocked with BSA; serial dilutions of TPPP/p25 forms or SYN; detected by TPPP/p25 or SYN antibodies; apparent Kd from hyperbola with a single binding site
LC3B (Homo sapiens) = LC3B (Homo sapiens) (UniProt Q9GZQ8); settings: cited from earlier work

Substance | Kd [1] [µM] | Kd (LC3B (Homo sapiens)) [µM]
Tubulin Polymerization Promoting Protein (TPPP/p25), human recombinant with hexaHis tag (from UniProt O94811 1-219) (natural protein; other documents disagree on this pair) | 0.0215 | –
SQSTM1/p62 (from UniProt Q13501) | – | 1.5
